Data: PMC1072803

Target: T1, CREB-HZ (CREB-H bZIP region) (Mus musculus, UniProt Q91XE9 206-318)
T1 sequence: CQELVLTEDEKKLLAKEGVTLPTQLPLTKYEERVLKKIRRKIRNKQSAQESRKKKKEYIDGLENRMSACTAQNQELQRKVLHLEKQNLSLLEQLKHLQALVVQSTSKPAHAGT
Assay: competition

B1: box B, alcohol dehydrogenase-1 gene (dsDNA)
DNA 1: GATCTTGTACACGTAATCGTAGGATCC
DNA 2: GGATCCTACGATTACGTGTACAAGATC
Does B1 bind?
Result: binds
